Reference: patent publication US20180194839A1 (Novartis, published 2018)

T1: recombinant human IL-17F (SEQ ID NO: 77) (human, UniProt Q96PD4 31-163)
T1 sequence: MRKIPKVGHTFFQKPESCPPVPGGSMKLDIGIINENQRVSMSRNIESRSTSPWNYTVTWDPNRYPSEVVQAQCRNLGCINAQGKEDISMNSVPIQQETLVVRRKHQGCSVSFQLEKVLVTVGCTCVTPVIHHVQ

T2: recombinant human IL-17A (SEQ ID NO: 76) (human, UniProt Q16552 24-155, limits assumed)
T2 sequence: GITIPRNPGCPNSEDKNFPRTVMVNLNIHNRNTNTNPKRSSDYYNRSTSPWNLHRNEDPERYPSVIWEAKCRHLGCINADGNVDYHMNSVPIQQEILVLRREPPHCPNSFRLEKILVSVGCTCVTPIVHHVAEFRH

T3: recombinant human IL-17A/F heterodimer (human, UniProt Q16552 24-155; Q96PD4 31-163, limits assumed)
T3 sequence (looked up) 1: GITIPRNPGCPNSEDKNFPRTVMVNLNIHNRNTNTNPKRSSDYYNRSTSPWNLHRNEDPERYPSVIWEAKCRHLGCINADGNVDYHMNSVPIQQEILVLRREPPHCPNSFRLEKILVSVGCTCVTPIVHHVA
T3 sequence (looked up) 2: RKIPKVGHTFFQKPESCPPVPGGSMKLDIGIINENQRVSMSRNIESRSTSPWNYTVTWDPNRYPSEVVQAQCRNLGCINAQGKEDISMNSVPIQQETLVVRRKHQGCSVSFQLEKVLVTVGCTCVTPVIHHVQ

T4: recombinant human IL-17B (R&D Systems) (human, UniProt Q9UHF5 21-180)
T4 construct: also called huIL-17B; hu IL-17B
T4 sequence (looked up): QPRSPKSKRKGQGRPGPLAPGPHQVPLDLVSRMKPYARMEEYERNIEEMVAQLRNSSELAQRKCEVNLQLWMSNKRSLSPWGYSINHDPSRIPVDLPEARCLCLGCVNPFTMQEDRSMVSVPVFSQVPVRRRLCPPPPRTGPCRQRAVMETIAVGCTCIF

T5: recombinant mouse IL-17F (SEQ ID NO: 84) (mouse, UniProt Q7TNI7 29-161)
T5 construct: also called mIL-17F; rmIL-17F
T5 sequence: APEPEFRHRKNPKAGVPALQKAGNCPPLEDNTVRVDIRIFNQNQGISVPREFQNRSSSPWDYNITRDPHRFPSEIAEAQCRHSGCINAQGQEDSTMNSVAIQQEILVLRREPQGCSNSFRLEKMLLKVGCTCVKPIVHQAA

T6: recombinant human IL-17C (R&D Systems Cat#1234IL/CF) (human, UniProt Q9P0M4 19-197)
T6 construct: also called huIL-17C; hu IL-17C
T6 sequence (looked up): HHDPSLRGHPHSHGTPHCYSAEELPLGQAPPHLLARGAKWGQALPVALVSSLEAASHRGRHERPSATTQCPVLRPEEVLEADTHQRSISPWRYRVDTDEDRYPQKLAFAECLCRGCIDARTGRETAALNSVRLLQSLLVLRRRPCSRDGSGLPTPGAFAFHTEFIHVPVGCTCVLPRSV

T7: recombinant mouse IL-17A/F (R&D Systems Cat#5390-IL) (mouse, UniProt Q62386 26-158; Q7TNI7 29-161, limits assumed)
T7 construct: bought heterodimer; also called mIL-17A/F; rmIL-17A/F
T7 sequence (looked up) 1: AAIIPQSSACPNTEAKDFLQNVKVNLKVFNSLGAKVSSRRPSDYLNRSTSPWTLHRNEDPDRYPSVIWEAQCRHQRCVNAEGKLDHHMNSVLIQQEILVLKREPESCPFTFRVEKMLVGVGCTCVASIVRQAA
T7 sequence (looked up) 2: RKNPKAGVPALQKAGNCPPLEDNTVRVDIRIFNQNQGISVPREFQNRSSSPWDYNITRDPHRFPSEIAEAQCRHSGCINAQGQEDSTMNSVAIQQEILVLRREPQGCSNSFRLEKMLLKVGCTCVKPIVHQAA

T8: recombinant human IL-17D (R&D Systems Cat#1504IL/CF) (human, UniProt Q8TAD2 18-202, limits assumed)
T8 construct: also called huIL-17D; hu IL-17D
T8 sequence (looked up): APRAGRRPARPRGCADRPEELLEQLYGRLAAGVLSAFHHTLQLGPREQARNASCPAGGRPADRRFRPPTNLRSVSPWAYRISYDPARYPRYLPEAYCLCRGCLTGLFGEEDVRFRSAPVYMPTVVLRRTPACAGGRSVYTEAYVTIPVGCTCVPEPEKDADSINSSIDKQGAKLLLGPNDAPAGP

T9: human IL-17A (construct not stated) (human, UniProt Q16552 24-155, limits assumed)
T9 construct: also called huIL-17A; human IL-17A biotin
T9 sequence: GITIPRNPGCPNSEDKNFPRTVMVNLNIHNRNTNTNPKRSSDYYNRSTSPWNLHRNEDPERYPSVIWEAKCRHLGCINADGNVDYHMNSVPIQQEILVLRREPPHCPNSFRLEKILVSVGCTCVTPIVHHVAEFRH


Experiments:
[1] = target: T1, recombinant human IL-17F (SEQ ID NO: 77); assay: cell-based or functional assay
[2] = target: T2, recombinant human IL-17A (SEQ ID NO: 76); assay: cell-based or functional assay
[3] = target: T3, recombinant human IL-17A/F heterodimer; assay: cell-based or functional assay
[4] = target: T4, recombinant human IL-17B (R&D Systems); assay: ELISA, coated antigen, Ab 1 µg/ml
[5] = target: T5, recombinant mouse IL-17F (SEQ ID NO: 84); assay: ELISA, coated antigen, Ab 1 µg/ml
[6] = target: T6, recombinant human IL-17C (R&D Systems …); assay: ELISA, coated antigen, Ab 1 µg/ml
[7] = target: T7, recombinant mouse IL-17A/F (R&D Systems …); assay: ELISA, coated antigen, Ab 1 µg/ml
[8] = target: T8, recombinant human IL-17D (R&D Systems …); assay: ELISA, coated antigen, Ab 1 µg/ml
[9] = target: T2, recombinant human IL-17A (SEQ ID NO: 76); assay: cell-based or functional assay; remark: listed apart in the source
[10] = target: T9, human IL-17A (construct not stated); assay: competition ELISA: biotinylated huIL-17A pre-incubated with antibody, binding to coated huIL-17RA
[11] = target: T2, recombinant human IL-17A (SEQ ID NO: 76); assay: cell-based or functional assay; remark: listed apart in the source
[12] = target: T1, recombinant human IL-17F (SEQ ID NO: 77); assay: cell-based or functional assay; remark: listed apart in the source
[13] = target: T2, recombinant human IL-17A (SEQ ID NO: 76); assay: cell-based or functional assay; remark: listed apart in the source
[14] = target: T3, recombinant human IL-17A/F heterodimer; assay: cell-based or functional assay; remark: listed apart in the source

Binder | IC50, huIL-6 secretion by BJ cells; stimulus rhuIL-17F (10 nM) + rhuTNF-α (6 pM) [1] | IC50, huIL-6 secretion by BJ cells; stimulus rhuIL-17F (30 nM) [1] | IC50, huIL-6 secretion by BJ cells; stimulus rhuIL-17A (1 nM) [2] | IC50, huIL-6 secretion by BJ cells; stimulus rhuIL-17A/F (300 pM) + rhuTNF-α (6 pM) [3] | IC50, huIL-6 secretion by BJ cells; stimulus rhuIL-17A/F (3 nM) [3] | O.D. [4] | O.D. [5] | O.D. [6] | O.D. [7] | O.D. [8] | IC50, huGROα secretion by BJ cells; stimulus rhuIL-17A (0.5 nM) [9] | IC50 [10] | IC50, huIL-6 secretion by BJ cells; stimulus rhuIL-17A (0.5 nM) [11] | IC50, hu-GRO-alpha secretion by BJ cells; stimulus IL-17F (10 nM) + TNF-α (6 pM) [12] | IC50, hu-GRO-alpha secretion by BJ cells; stimulus IL-17F (30 nM) [12] | IC50, hu-GRO-alpha secretion by BJ cells; stimulus IL-17A (30 pM) + TNF-α (6 pM) [13] | IC50, hu-GRO-alpha secretion by BJ cells; stimulus IL-17A (1 nM) [13] | IC50, hu-GRO-alpha secretion by BJ cells; stimulus IL-17A/F (300 pM) + TNF-α (6 pM) [14] | IC50, hu-GRO-alpha secretion by BJ cells; stimulus IL-17A/F (3 nM) [14] | IC50, huIL-6 secretion by BJ cells; stimulus rhuIL-17A (30 pM) + rhuTNF-α (6 pM) [2]
XAB4 (antibody, human IgG1, kappa, V domains shown, also called MB435 N56Q) VH: EVQLVESGGDLVQPGGSLRLSCAASGFTFSSYWMSWVRQAPGKGLEWVANIKQDGSEKYYVDSVKGRFTISRDNAKNSLYLQMNSLRAEDTAVYYCARDRGSLYYWGQGTLVTVSS VL: AIQLTQSPSSLSASVGDRVTITCRPSQGINWELAWYQQKPGKAPKLLIYDASSLEQGVPSRFSGSGSGTDFTLTISSLQPEDFATYYCQQFNSYPLTFGGGTKVEIKR | > 3 µM | > 3000 nM | 0.63 nM | 0.17 nM | 1.68 nM | 0.034 O.D. | 0.098 O.D. | 0.036 O.D. | 2.26 O.D. | 0.034 O.D. | 0.44 nM | 0.321 nM | 0.55 nM | > 3 µM | > 3000 nM | 7 pM | 0.35 nM | 0.1 nM | 1.11 nM | –
XAB1 (antibody, human IgG1, kappa, V domains shown, human IgG1/kappa monoclonal antibody; also called parental XAB1; XAB1 IgG) VH: EVQLVESGGDLVQPGGSLRLSCAASGFTFSSYWMSWVRQAPGKGLEWVANIKQDGSEKYYVDSVKGRFTISRDNAKNSLYLQMNSLRAEDTAVYYCARDRGSLYYWGQGTLVTVSS VL: AIQLTQSPSSLSASVGDRVTITCRPSQGIISALAWYQQKPGKAPKLLIYDASSLENGVPSRFSGSGSGTDFTLTISSLQPEDFATYYCQQFNSYPLTFGGGTKVEIKR | > 3 µM | – | – | 3.83 nM | – | 0.049 O.D. | 0.044 O.D. | 0.032 O.D. | 1.76 O.D. | 0.031 O.D. | 1.39 nM | 0.83 nM | 4.97 nM | > 3 µM | – | 0.72 nM | – | 6.22 nM | – | 0.47 nM
